Measured values taken from patent US20260266833A1 (AXOIYA, published 2026).
Numbering of substitutions follows the chain as printed. Numbers in names are those of the source. Non-standard residues stand in square brackets, D forms with d. No end group written: not given here. *: point of attachment. Biotin = O=C1N[C@H]2[C@H](CS[C@H]2CCCCC(=O)*)N1; Arg(Me) = CNC(=N)NCCC[C@H](N)C(=O)O; Ahx = NCCCCCC(=O)O

T1: H3K14
T1 construct: also called H3K14 peptide (non-modified)
T1 peptide: {Biotin-Ahx}-TARKSTGGKAPRKQLAT

T2: H3R17me1
T2 construct: also called H3R17me1 peptide
T2 peptide: {Biotin-Ahx}-KSTGGKAP[Arg(Me)]KQLATKAA

T3: H3R17
T3 construct: also called H3R17 peptide (non-modified)
T3 peptide: {Biotin-Ahx}-KSTGGKAPRKQLATKAA

T4: H3K27me3 peptide (Kme3 (trimethyl-lysine) at the 10th residue (KQLATKAARKme3SAPATGGVK); N-terminus biotin + aminohexanoic acid linker, or FITC at the N-terminus for fluorescence polarization)
T4 construct: Synthetic peptide (GenScript); One entry is used for the biotinylated and the FITC-labelled form
T4 peptide: KQLATKAARKSAPATGGVK

T5: H3K14Ac
T5 construct: also called H3K14Ac peptide
T5 peptide: {Biotin-Ahx}-TARKSTGGK(Ac)APRKQLAT

B1: Cbx7.wt chromodomain-luciferase fusion (other)
chain: MSYYHHHHHHGSDYKDDDDKSSGENLYFQGSGGSSAIGEQVFAVESIRKKRVRKGKVEYLVKWKGWPPKYSTWEPEEHILDPRLVMAYEEKEERDRASGYRKRGPK
notes: not shown: engineered YY5 firefly luciferase from Photinus pyralis fused to the C-terminus
B2: Cbx8.VD chromodomain-luciferase fusion (designed binder)
chain: MSYYHHHHHHGSDYKDDDDKSSGENLYFQGSGGSGEDVFAAEALLKRRIRKGRMEYLVKWEGWSQKYSTWEPEENILDARLLAAFEEREREMELYGP
notes: as for B1
B3: Cbx7.VD chromodomain-luciferase fusion (designed binder)
chain: B1 chain with Q40D, K64E
notes: as for B1
B4: Cbx2.VD chromodomain-luciferase fusion (designed binder)
chain: MSYYHHHHHHGSDYKDDDDKSSGENLYFQGSGGSGEDVFAAECILSKRLRKGKLEYLVKWEGWSSKHNSWEPEENILDPRLLLAFQKKEHEKEVQNR
notes: as for B1
B5: Cbx2.VD chromodomain (tags removed) (designed binder)
chain: GEDVFAAECILSKRLRKGKLEYLVKWEGWSSKHNSWEPEENILDPRLLLAFQKKEHEKEVQNR
B6: Cbx7.VD chromodomain (tags removed) (designed binder)
chain: SAIGEDVFAVESIRKKRVRKGKVEYLVKWEGWPPKYSTWEPEEHILDPRLVMAYEEKEERDRASGYRKRGPK
notes: also called Cbx7 Q9D/K33E
B7: phage-displayed Cbx7.V4 (designed binder)
chain: B6 chain with G4C, E5D, D6N, P34Q, K35E
B8: phage-displayed Cbx7.V1 (designed binder)
chain: B6 chain with E5D, V7I, P34L, K35E
B9: phage-displayed Cbx7.V5 (designed binder)
chain: B6 chain with E5H, A9P, E30R, G31D, P34E, K35Q
B10: phage-displayed Cbx7.V2 (designed binder)
chain: B6 chain with G4C, E5D, D6N, F8Y, A9P, E30K, P34L, K35E
B11: phage-displayed Cbx7.V6 (designed binder)
chain: B6 chain with G4F, A9P, E30K, P34S, K35E
B12: phage-displayed Cbx7.V3 (designed binder)
chain: B6 chain with G4C, D6Y, V7I, A9S, K35E, S37M
B13: Cbx7 Q9D chromodomain (tags removed) (designed binder)
chain: B6 chain with E30K
notes: FP: His6 and Flag tags removed with TEV protease
B14: Cbx7 K33E chromodomain (tags removed) (designed binder)
chain: B6 chain with D6Q
notes: as for B13
B15: Cbx7.V1 back-mutant L37P, His6- and Flag-tagged (designed binder, not shown: small tags and cut ends)
chain: B6 chain with E5D, V7I, K35E
B16: Cbx7.V1 back-mutant E38K, His6- and Flag-tagged (designed binder, not shown: small tags and cut ends)
chain: B6 chain with E5D, V7I, P34L
B17: Cbx7.V1 back-mutant I10V, His6- and Flag-tagged (designed binder, not shown: small tags and cut ends)
chain: B6 chain with E5D, P34L, K35E
B18: Cbx7.V1 chromodomain, His6- and Flag-tagged (designed binder, not shown: small tags and cut ends)
chain: B6 chain with E5D, V7I, P34L, K35E
notes: BLI form; tags are said to be removed only for FP and ITC
B19: Cbx7.V1 back-mutant D8E, His6- and Flag-tagged (designed binder, not shown: small tags and cut ends)
chain: B6 chain with V7I, P34L, K35E
B20: Cbx7.V1 back-mutant D9Q, His6- and Flag-tagged (designed binder, not shown: small tags and cut ends)
chain: B6 chain with E5D, D6Q, V7I, P34L, K35E

The binders below were run against T6, H4K20 peptide (N-terminus biotin + aminohexanoic acid linker) (assay: luciferase-fusion assay on immobilized peptide, fusion at 100 nM, normalized to H3K9me3).
Description: (§1) For luciferase-based assays, 384-well white plates (PerkinElmer) were coated for 16 h at 4° C. with 4 μg/ml streptavidin (New England Biolabs, N7021S) in TBS pH 8.5 (50 mM Tris-HCl pH 8.5, 150 mM NaCl). Each well was blocked with 60 μl/well of TBS pH 8.5 containing 0.5% BSA (TB buffer) and incubated at 25° C. for 1 h. Plates were washed four times with 90 μl/well of PBS pH 7.4, 0.05% Tween-20 (PT buffer) and incubated with 25 μl/well of biotinylated histone peptides at 5 μg/ml in TB buffer pH 8.5 for 30 min at 25° C. Plates were washed and incubated with Cbx chromodomain-luciferase fusions diluted to 0.1 nM for Cbx. VD or 100 nM for Cbx.wt in TB buffer, 0.05% Tween-20, 1 mM DTT, 5% glycerol (TBT buffer). Plates were incubated for 1 h at 25° C. with gentle shaking, washed six times and luminescence intensity was measured with a Biotek Synergy 5 plate reader (Biotek) using the ONE-Glo™ EX luciferase assay system reagent (Promega). Following background subtraction of the luminescence signal derived from wells coated with streptavidin, the luminescence intensity was normalized to wells with immobilized H3K9me3 peptide.
(§2) To enhance detection sensitivity, each chromodomain was expressed as a fusion to the N-terminus of an engineered firefly luciferase and binding was measured by luminescence intensity.
B1: binds.

These binders were tested against T7, H4K20me3 (Kme3 at peptide residue 8 (histone H4 K20); N-terminal biotin and aminohexanoic acid linker) in the same assay as above.
T7 construct: also called H4K20Me3 peptide
Description: as §1, §2
B1: binds.

Molecular target: T1, H3K14
Experiment: luciferase-fusion assay on immobilized peptide
Description: as §1, §2
B2: no binding (tested: 0.1 nM).
B3: no binding (tested: 0.1 nM).
B4: no binding (tested: 0.1 nM).

These binders were tested against T6, H4K20 peptide (assay: luciferase-fusion assay on immobilized peptide).
Description: as §1, §2
B2: no binding (tested: 0.1 nM).
B4: no binding (tested: 0.1 nM).

Each binder was assayed against T7, H4K20me3 (assay: luciferase-fusion assay on immobilized peptide).
Description: as §1, §2
B2: no binding (tested: 0.1 nM).
B4: no binding (tested: 0.1 nM).

Molecular target: T2, H3R17me1
Experiment: luciferase-fusion assay on immobilized peptide
Description: as §1, §2
B3: no binding (tested: 0.1 nM).
B4: no binding (tested: 0.1 nM).

Molecular target: T3, H3R17
Experiment: luciferase-fusion assay on immobilized peptide
Description: as §1, §2
B2: no binding (tested: 0.1 nM).
B3: no binding (tested: 0.1 nM).
B4: no binding (tested: 0.1 nM).

What follows are binders tested against T6, H4K20 peptide (assay: luciferase-fusion assay on immobilized peptide, fusion at 0.1 nM, normalized to H3K9me3).
Description: as §1, §2
B3: binds.

What follows are binders tested against T7, H4K20me3 in the same assay as above.
Description: as §1, §2
B3: binds.

Molecular target: T4, H3K27me3 peptide
Experiment: fluorescence polarization, FITC-peptide 0.5 nM
Description: (§4) Fluorescence polarization (FP) assays were performed in a 20 μl volume at a constant histone peptide concentration of 0.5 nM. Binding measurements were performed in FP buffer (25 mM HEPES pH 7.5, 150 mM NaCl, 1 mM DTT, 0.01% TritonX-100) by mixing in a 384-well black plate (Corning) 0.5 nM FITC-labeled histone peptides with serial dilutions of wild-type Cbx chromodomains ranging from 200-0.2 μM. For affinity determination of Cbx7.V1 and all Cbx. VDs, chromodomains were serially diluted from 50 μM to 50 nM. Samples were incubated for 30 min at 25° C. prior to data acquisition. […] Dissociation constants were determined using Prismv.9.3 (GraphPad Software Inc) with a one-site total binding model.
FP assays was used to measure the affinities of each wild-type Cbx chromodomain (Cbx.wt) and its Cbx. VD version for the H3K9me3 and H3K27me3 peptides (Table 13).
For B5, the Kd was 3000 nM.
For B6, the Kd was 5000 nM.

Molecular target: T5, H3K14Ac
Experiment: phage ELISA, specificity heatmap
Description: (§3) Phage ELISA experiments were performed by coating 384-well MAXISORP plates (Thermo Fisher Scientific) with 25 μl/well of 2 μg/ml streptavidin (New England Biolabs, N7021S) in PBS pH 7.4, and incubating them at 4° C. for 16 h. Each well was blocked with 60 μl/well of PBS pH 7.4 containing 0.5% BSA (PB buffer) and incubated at 25° C. for 1 h. Plates were washed four times with 90 μl/well of PBS pH 7.4 containing 0.05% Tween-20 (PT buffer) and incubated with 25 μl/well of biotinylated histone peptides at 2 μg/ml in PBS pH 7.4 for 30 min at 25° C. Plates were incubated with phage stocks previously diluted three-fold in PB buffer containing 0.05% Tween-20 (PBT buffer) at 25° C. for 1 h with gentle agitation. Plates were washed and bound phage was detected using 25 μl/well of an anti-M13-HRP-conjugated antibody (1:3,000 dilution in PT buffer; SinoBiological, 11973-MM05T-H). Following incubation at 25° C. for 30 min with gentle shaking, plates were washed, and binding was assessed by adding 25 μl/well of the 3,3′,5,5′-tetramethylbenzidine (TMB) (Thermo Fisher) chromogenic substrate. Plates were incubated with TMB at 25° C. with gentle shaking for 5-10 min, and the colorimetric reaction was stopped by addition of 25 μl/well of a IM H3PO4 solution. Plates were read spectrophotometrically at 450 nm using a PowerWave XS microplate reader (BioTek).
B7: no binding.
B8: no binding.
B9: no binding.
B10: no binding.
B11: no binding.
B12: no binding.

Molecular target: T1, H3K14
Experiment: phage ELISA, specificity heatmap
Description: as §3
B7: no binding.
B8: no binding.
B9: no binding.
B10: no binding.
B11: no binding.
B12: no binding.

Each binder was assayed against T6, H4K20 peptide (assay: phage ELISA, specificity heatmap).
Description: as §3
B7: no binding.
B8: no binding.
B9: no binding.
B10: no binding.
B11: no binding.
B12: no binding.

What follows are binders tested against T7, H4K20me3 (assay: phage ELISA, specificity heatmap).
Description: as §3
B7: no binding.
B8: no binding.
B9: no binding.
B10: no binding.
B11: no binding.
B12: no binding.

Molecular target: T4, H3K27me3 peptide
Experiment: fluorescence polarization, FITC-peptide 0.5 nM
Remark: another data set of the same source
Description: as §4
Work on B13 yielded a Kd of 100000 nM.
B6 was tested, and the Kd was 5000 nM.
For B14, the Kd was 20000 nM.

Molecular target: T4, H3K27me3 peptide
Experiment: BLI, biotinylated peptide on streptavidin tips, steady state
Description: BLI experiments were performed on an Octet HTX system (ForteBio) using biosensor tips coated with streptavidin to immobilize biotinylated H3K9me3 and H3K27me3 peptides. Binding analysis was performed by analyzing the association of biosensor-immobilized methylated peptides to Cbx7.V1 variants in solution at 5 or 1 μM. Binding assays were performed at 25° C. in BLI reaction buffer (25 mM HEPES pH 7.0, 150 mM NaCl, 1 mg/ml BSA, 0.01% Tween-20). Dissociation constants (KD) were obtained by fitting the response wavelength shifts in the steady-state regions with the Langmuir binding model.
Work on B15 yielded a Kd of 2500 nM.
B16 was tested, and the Kd was 1500 nM.
B17 showed a Kd of 2000 nM.
B18 gave a Kd of 2000 nM.
B19 showed a Kd of 2000 nM.
B20 showed a Kd of 2000 nM.
